Data as given in paper PMC6177315 (Biochemistry, 2018).
Like-named read-outs stand apart in the source and are kept apart here. Where no end group is shown, it is not given here.

B1: human eIF5B_(951–1220), comprising domains 3 and 4 (GH-eIF5B-D34) (domain or fragment, UniProt O60841 951-1220, looked up)
chain: YKEDEIPVLKDELIHELKQTLNAIKLEEKGVYVQASTLGSLEALLEFLKTSEVPYAGINIGPVHKKDVMKASVMLEHDPQYAVILAFDVRIERDAQEMADSLGVRIFSAEIIYHLFDAFTKYRQDYKKQKQEEFKHIAVFPCKIKILPQYIFNSRDPIVMGVTVEAGQVKQGTPMCVPSKNFVDIGIVTSIEINHKQVDVAKKGQEVCVKIEPIPGESPKMFGRHFEATDILVSKISRQSIDALKDWFRDEMQKSDWQLIVELKKVFEII
B2: human eIF5B_(1076–1220), comprising domain 4 (GH-eIF5B-D4) (domain or fragment, UniProt O60841 1076-1220, looked up)
chain: YKKQKQEEFKHIAVFPCKIKILPQYIFNSRDPIVMGVTVEAGQVKQGTPMCVPSKNFVDIGIVTSIEINHKQVDVAKKGQEVCVKIEPIPGESPKMFGRHFEATDILVSKISRQSIDALKDWFRDEMQKSDWQLIVELKKVFEII
B3: eIF5_(196–431) (GH-eIF5-CTD) (domain or fragment, human, UniProt P55010 196-431, looked up)
chain: EEEEDDDWGEDTTEEAQRRRMDEISDHAKVLTLSDDLERTIEERVNILFDFVKKKKEEGVIDSSDKEIVAEAERLDVKAMGPLVLTEVLFNEKIREQIKKYRRHFLRFCHNNKKAQRYLLHGLECVVAMHQAQLISKIPHILKEMYDADLLEEEVIISWSEKASKKYVSKELAKEIRVKAEPFIKWLKEAEEESSGGEEEDEDENIEVVYSKAASVPKVETVKSDNKDDDIDIDAI

Tests used:
Experiment in all cases: fluorescence polarisation
[1] = biological target: B2
[2] = biological target: B1
[3] = biological target: Full-length human eIF5 (GH-eIF5) (human, UniProt P55010 1-431)
[4] = biological target: B2; remark: listed apart in the source
[5] = biological target: B1; remark: listed apart in the source
[6] = biological target: B3

Binder	Kd [3]	Kd [4]	Kd [5]	further results
DIDIDAI (peptide, UniProt P55010 425-431, looked up, also: fluorescein label, position not given here) [fluorescein-labeled 7-residue eIF5 C-terminal peptide (Fl-eIF5-CT7)]				Kd [1]: 1400 nM; Kd [2]: 2400 nM
B1	510 nM			
DDDIDIDAI (peptide, UniProt P55010 423-431, looked up) [eIF5 fragment comprising the C-terminal 9 residues (eIF5-CT9)]		740 nM	1200 nM	
EEEDEDENIEVVYSKAASVPKVETVKSDNKDDDIDIDAI (peptide, UniProt P55010 393-431, looked up) [eIF5 fragment comprising the C-terminal 39 residues (eIF5-CT39)]		500 nM	1100 nM	
B2	370 nM			Kd [6]: 370 nM
B3			720 nM	
